Source: patent publication US20260092093A1 (TJ BIOPHARMA SHANGHAI, published 2026)
Positions count from the first letter of the chain named.

T1: hIL-18 receptor (hIL-18Rα and hIL-18Rβ) (human, UniProt Q13478 19-541; O95256 20-599)
T1 sequence (looked up) 1: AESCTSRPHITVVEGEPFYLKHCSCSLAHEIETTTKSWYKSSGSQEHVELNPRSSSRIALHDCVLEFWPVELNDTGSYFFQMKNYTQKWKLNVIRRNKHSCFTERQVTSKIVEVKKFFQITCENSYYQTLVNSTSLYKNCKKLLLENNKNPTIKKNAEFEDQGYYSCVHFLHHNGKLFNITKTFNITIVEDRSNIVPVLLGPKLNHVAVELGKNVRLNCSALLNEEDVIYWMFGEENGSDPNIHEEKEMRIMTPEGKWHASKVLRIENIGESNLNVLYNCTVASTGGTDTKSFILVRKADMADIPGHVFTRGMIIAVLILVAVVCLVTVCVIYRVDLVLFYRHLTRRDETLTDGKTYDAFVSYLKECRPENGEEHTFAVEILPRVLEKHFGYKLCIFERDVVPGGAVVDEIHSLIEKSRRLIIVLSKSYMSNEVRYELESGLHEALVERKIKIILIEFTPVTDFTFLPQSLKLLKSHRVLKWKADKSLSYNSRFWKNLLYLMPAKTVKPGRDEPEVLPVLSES
T1 sequence (looked up) 2: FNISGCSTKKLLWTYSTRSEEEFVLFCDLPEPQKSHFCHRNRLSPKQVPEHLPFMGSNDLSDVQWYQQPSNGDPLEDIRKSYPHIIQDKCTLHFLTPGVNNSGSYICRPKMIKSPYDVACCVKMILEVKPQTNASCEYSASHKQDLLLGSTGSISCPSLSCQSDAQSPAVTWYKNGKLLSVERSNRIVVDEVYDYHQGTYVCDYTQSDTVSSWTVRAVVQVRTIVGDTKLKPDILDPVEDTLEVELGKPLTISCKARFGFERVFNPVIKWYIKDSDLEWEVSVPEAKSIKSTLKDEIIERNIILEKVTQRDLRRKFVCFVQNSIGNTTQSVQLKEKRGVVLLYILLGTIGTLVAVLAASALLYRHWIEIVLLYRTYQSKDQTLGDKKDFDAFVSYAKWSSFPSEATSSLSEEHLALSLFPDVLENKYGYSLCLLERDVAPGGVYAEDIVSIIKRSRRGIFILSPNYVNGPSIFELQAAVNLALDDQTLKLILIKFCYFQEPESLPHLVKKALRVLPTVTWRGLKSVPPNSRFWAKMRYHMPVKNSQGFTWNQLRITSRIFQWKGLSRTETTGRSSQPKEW

T2: hIL-18BP-hFc (human, UniProt O95998 31-194, limits assumed)
T2 sequence (looked up): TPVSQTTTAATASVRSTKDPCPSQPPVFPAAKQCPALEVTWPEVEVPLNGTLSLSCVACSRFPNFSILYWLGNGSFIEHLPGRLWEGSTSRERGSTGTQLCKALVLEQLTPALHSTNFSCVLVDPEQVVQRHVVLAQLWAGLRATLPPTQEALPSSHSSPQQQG

B1: IL-18 variant polypeptide LM1 (ligand)
chain: YFPKLKSKLSVIRNLNDQVLFIDQGNRPLFEDMTDSDCRDNAPRTIFIISMYKGSGARGMAVTISVKCEKISTLSCENKIISFKEMNPPDNIKDTKSDIIFFQRSVPGHDNKMQFESSSYEGYFLACEKERDLFKLILKKEDELGDRSIMFTVQNED
B2: IL-18 variant polypeptide WM6 (ligand)
chain: B1 chain with P3D, G54D, G56Q, A57P, N91S
B3: IL-18 variant polypeptide MM1 (ligand)
chain: B1 chain with G54L, G56T, A57Q, N91V
B4: IL-18 variant polypeptide MM4 (ligand)
chain: B1 chain with K6R, G54L, G56T, A57I, N91G
B5: IL-18 variant polypeptide M6 (ligand)
chain: B1 chain with K6R, G54W, G56T, A57P, N91V, R104T
B6: IL-18 variant polypeptide M23 (ligand)
chain: B1 chain with K6R, G54Y, G56T, A57R
B7: IL-18 variant polypeptide M5 (ligand)
chain: B1 chain with P3E, K6T, G54W, G56P, A57W, N91V, R104T, N155K
B8: IL-18 variant polypeptide LM2 (ligand)
chain: B1 chain with K6R, G54L, A57S, N91V
B9: IL-18 variant polypeptide M25 (ligand)
chain: B1 chain with K6R, G54L, G56T, A57T, N91R
B10: IL-18 variant polypeptide M7 (ligand)
chain: B1 chain with K6R, G54H, G56T, N91A
B11: IL-18 variant polypeptide M26 (ligand)
chain: B1 chain with K6R, G54H, G56D, A57K, N91V, R104Y
B12: IL-18 variant polypeptide M20 (ligand)
chain: B1 chain with K6R, G54S, G56R, A57S, N91G, R104S
B13: IL-18 variant polypeptide WM2 (ligand)
chain: B1 chain with K6R, G54D, G56Q, A57P, K96E
B14: IL-18 variant polypeptide M10 (ligand)
chain: B1 chain with K6R, G54Q, G56L, A57W, N91S
B15: IL-18 variant polypeptide M9 (ligand)
chain: B1 chain with K6R, G54W, G56R, N91S, R104S
B16: IL-18 variant polypeptide M2 (ligand)
chain: B1 chain with P3S, G54W, G56P, A57D, N91G, R104T
B17: IL-18 variant polypeptide M3 (ligand)
chain: B1 chain with G54W, G56H, A57V, N91A, R104Y
B18: IL-18 variant polypeptide MM2 (ligand)
chain: B1 chain with P3A, K6Y, G54R, G56S, A57L, N91G
B19: IL-18 variant polypeptide M4 (ligand)
chain: B1 chain with G54W, A57V, N91V, R104F
B20: IL-18 variant polypeptide LM3 (ligand)
chain: B1 chain with K6R, V11I, N91G
B21: IL-18 variant polypeptide M22 (ligand)
chain: B1 chain with K6R, G54Y, G56R, A57G, N91K, R104S
B22: IL-18 variant polypeptide M1 (ligand)
chain: B1 chain with G54H, G56D, A57R, N91V, R104V
B23: IL-18 variant polypeptide LM5 (ligand)
chain: B1 chain with P3G, K6R, G54W, G56S, A57Q
B24: IL-18 variant polypeptide M16 (ligand)
chain: B1 chain with K6R, G54S, G56R, A57N, N91G, R104S
B25: IL-18 variant polypeptide M19 (ligand)
chain: B1 chain with G54H, G56E, A57Q, N91A
B26: IL-18 variant polypeptide MM6 (ligand)
chain: B1 chain with P3A, K6Y, G54R, G56S, A57L, N91A
B27: IL-18 variant polypeptide M14 (ligand)
chain: B1 chain with P3N, G54P, G56S, A57S, N91R, R104A
B28: IL-18 variant polypeptide LM4 (ligand)
chain: B1 chain with G54H, G56Y, A57S
B29: IL-18 variant polypeptide M18 (ligand)
chain: B1 chain with K6R, G54S, G56R, A57R, N91G, R104S

Each binder was assayed against T1, hIL-18 receptor (hIL-18Rα and hIL-18Rβ) (assay: cell-based or functional assay).

Binder	EC50 (nM), hIL-18 reporter assay [nM]
B1	0.076
B2	0.06
B3	0.97
B4	0.13
B5	0.18
B6	0.8
B7	0.22
B8	0.11
B9	0.58
B10	0.15
B11	0.068
B12	2.2
B13	10.7
B14	0.29
B15	0.43
B16	0.27
B17	0.24
B18	0.93
B19	0.018
B20	0.052
B21	7.2
B22	1.45
B23	0.13
B24	0.29
B25	0.66
B26	1
B27	0.04
B28	0.16
B29	0.58

The binders below were run against T2, hIL-18BP-hFc (assay: cell-based or functional assay).

Binder	EC50 (nM) in the Presence of 1 µg/mL hIL-18BP-hFc, hIL-18 reporter assay [nM]	EC50 Fold Change (+BP/-BP), hIL-18 reporter assay [fold]
B1	0.11	1.45
B2	0.74	12.3
B3	0.81	0.84
B4	0.43	3.31
B5	0.14	0.78
B6	1.4	1.75
B7	0.21	0.95
B8	0.055	0.5
B9	1.15	1.98
B10	0.25	1.67
B11	0.094	1.38
B12	0.5	0.23
B13	14.2	1.32
B14	0.17	0.59
B15	0.33	0.77
B16	0.19	0.7
B17	0.37	1.54
B18	2.24	2.41
B19	0.025	1.39
B20	0.069	1.33
B21	7.5	1.04
B22	3.45	2.38
B23	0.12	0.92
B24	0.34	1.17
B25	0.31	0.47
B26	1.5	1.5
B27	0.03	0.75
B28	0.17	1.06
B29	0.56	0.97

Target: T2, hIL-18BP-hFc
Experiment: cell-based or functional assay
Remark: another data set of the same source

Binder	EC50 (nM) in the Presence of 1 µg/mL hIL-18BP-hFc, PBMC assay (hIFNγ release) [nM]
B2	~0.04
